Data published in PMC7014002, “Identification and Characterization of a β-N-Acetylhexosaminidase with a Biosynthetic Activity from the Marine Bacterium Paraglaciecola hydrolytica S66^T” (International Journal of Molecular Sciences, 2020).

What was measured:
SpHex = biological target: T1, SpHex (Streptomyces plicatus, UniProt O85361); assay: transglycosylation time course, TLC; type: biochemical; settings: donor 100 mM; acceptor 200 mM lactose; 50 mM sodium phosphate pH 8.0, 0.5% BSA, 37 °C
T1 construct: gene hex
T1 sequence (O85361 1-506): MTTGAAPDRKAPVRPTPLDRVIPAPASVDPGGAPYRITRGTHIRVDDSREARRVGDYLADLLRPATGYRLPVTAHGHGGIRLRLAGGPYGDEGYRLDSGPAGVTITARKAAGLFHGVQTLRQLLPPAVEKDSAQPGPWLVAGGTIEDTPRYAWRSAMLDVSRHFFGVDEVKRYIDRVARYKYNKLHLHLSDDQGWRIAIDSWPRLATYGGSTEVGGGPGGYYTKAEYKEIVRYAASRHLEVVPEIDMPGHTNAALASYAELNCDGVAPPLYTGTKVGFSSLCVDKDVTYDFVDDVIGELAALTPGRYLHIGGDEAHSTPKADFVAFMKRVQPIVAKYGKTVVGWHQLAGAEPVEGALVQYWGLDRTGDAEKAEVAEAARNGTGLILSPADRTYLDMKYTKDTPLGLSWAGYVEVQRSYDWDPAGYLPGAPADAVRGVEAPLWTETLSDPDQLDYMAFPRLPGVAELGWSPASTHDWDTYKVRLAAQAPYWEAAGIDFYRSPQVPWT

purified protein [1] = substrate: CC(=O)N[C@H]1[C@H](Oc2ccc([N+](=O)[O-])cc2)O[C@H](CO)[C@H](O)[C@@H]1O; assay: purified protein; type: biochemical, Paraglaciecola hydrolytica; settings: two-fold diluted McIlvaine buffer pH 6.0, 0.05% BSA, 37 °C
purified protein [2] = substrate: CC(=O)N[C@H]1[C@H](Oc2ccc([N+](=O)[O-])cc2)O[C@H](CO)[C@@H](O)[C@@H]1O; assay: purified protein; type: biochemical, Paraglaciecola hydrolytica; settings: two-fold diluted McIlvaine buffer pH 6.0, 0.05% BSA, 37 °C

With `CC1=N[C@H]2[C@@H](O1)O[C@H](CO)[C@@H](O)[C@@H]2O` [NAG-oxazoline, 2-methyl-(1,2-dideoxy-α-D-glucopyrano)-oxazoline] the “transglycosylation time course, TLC” value (SpHex) was “We here also demonstrated transglycosylation by the commercial GH20 N-acetylglucosaminidase from S. plicatus (SpHex)”.

B1: PhNah20A (Paraglaciecola hydrolytica) (protein)
chain: MYKIIIAGLGLLWSITSHGMQPLNLMPYPSEVQQQAGHFTLPSQLKVFTQHVSEARCELIKEQLEQLQQVEVLWVTAKDQANLLVEVEGVTQVMEVGGKSGELIPTLHDNEQYHLSVSPRLITLKAQTERGMLHGVQTLLQLVNRTQRSIPAVDIDDKPRFAWRGLLIDSVRHFMPVDTIKRQLRGMASAKLNVLHWHLTDDQGWRIASKAYPKLQLLASDGLFYTQQQIREVVQYAALLGIRVVPEFDVPGHASAIAVAYPELITQPGPYTMQRHWGVFEPLLDPSNPQVYQFIETIISELAELFPDVYVHIGGDEIEPTQWQQSQAVQHYMQQHQLADEHQLHAYFNQQVQQILSKYGKQMMGWDEVFATDLPKDIVVQSWRGLDSLQHIASSDYQVLLSTGYYVDQPQEAAYHYRNDPFTSFKQPSFKTQDIKHWQHWQFTMPRLKGSAVSGEFVLLSSEAGKQVLLRFNNQQARLINELEPRANLQRFTVDSWMGPSQFELDLSKDVIQQGRILIGNTPYSVSGNRLAQSTGSKALPAMLQDFVAASKVPTDLPKLHKNILGGEAAIWSEIVRADNLDLRLWPRLYAIAERLWSPATLTDEDAMYRRLTVMQTYASEVIGLEFTQQQRAGFKQLTSQDADIEPLIILAEAVEQAQYYTRHHSKFQHDNYHQLVELNQYVDYLSAQSLGLVELKRHIELFQQGDQQAKKFIEQLLQKWQKNLPKLKLLIANYPKLHSLAPLVTTLSQVVDIGQKLVAQCAKGEPLKPEHQRDVQQQLWQAAQLQQEMVVSSALAIEALAFKCRA
B1 gave a Km (purified protein [1]) of 0.56 ± 0.11 mM, a kcat (purified protein [1]) of 193 s⁻¹ and a kcat/Km (purified protein [1]) of 344000 M⁻¹ s⁻¹. For the same molecule, the Km (purified protein [2]) was 0.43 ± 0.07 mM, the kcat (purified protein [2]) was 147 s⁻¹ and the kcat/Km (purified protein [2]) was 341000 M⁻¹ s⁻¹.
